Assay results as given in patent publication US10087225B2, “Formulation of MK2 inhibitor peptides” (MOERAE MATRIX, INC., priority 2015, dated 2018).

Key:
Test in all cases: Kinase Profiling Assay
Format in all cases: biochemical
MKK7β(h) = MKK7β(h) (Homo sapiens, UniProt O14733)
PKBγ(h) = PKBγ(h) (Homo sapiens, UniProt Q9Y243); conditions: 100 μM
DDR2(h) = molecular target: T1, DDR2(h) (Homo sapiens, UniProt Q16832); conditions: 100 μM
T1 sequence (Q16832 22-855): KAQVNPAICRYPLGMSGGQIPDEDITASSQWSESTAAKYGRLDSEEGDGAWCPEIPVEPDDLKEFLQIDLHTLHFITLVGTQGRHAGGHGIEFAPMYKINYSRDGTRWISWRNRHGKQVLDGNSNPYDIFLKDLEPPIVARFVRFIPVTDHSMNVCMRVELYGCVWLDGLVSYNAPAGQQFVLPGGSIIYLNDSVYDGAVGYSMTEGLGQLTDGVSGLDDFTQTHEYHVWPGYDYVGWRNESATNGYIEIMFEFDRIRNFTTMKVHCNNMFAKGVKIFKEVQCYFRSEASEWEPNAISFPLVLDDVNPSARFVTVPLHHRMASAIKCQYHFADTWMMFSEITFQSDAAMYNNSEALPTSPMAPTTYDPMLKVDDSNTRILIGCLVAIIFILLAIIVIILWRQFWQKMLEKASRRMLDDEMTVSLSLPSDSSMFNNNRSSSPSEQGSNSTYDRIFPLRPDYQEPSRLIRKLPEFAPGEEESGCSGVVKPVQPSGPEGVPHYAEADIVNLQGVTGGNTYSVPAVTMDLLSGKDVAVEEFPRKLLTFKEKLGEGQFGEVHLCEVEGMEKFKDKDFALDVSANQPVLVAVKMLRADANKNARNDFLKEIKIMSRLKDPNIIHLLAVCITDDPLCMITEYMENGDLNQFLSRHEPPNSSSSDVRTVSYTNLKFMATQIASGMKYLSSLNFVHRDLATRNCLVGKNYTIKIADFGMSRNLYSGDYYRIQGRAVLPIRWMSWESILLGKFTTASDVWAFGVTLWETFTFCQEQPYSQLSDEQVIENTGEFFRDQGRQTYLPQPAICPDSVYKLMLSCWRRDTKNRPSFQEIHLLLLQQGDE

CLK2(h) = CLK2(h) (Homo sapiens, UniProt P49760); conditions: 100 μM
Sequence of CLK2(h) (P49760 whole entry): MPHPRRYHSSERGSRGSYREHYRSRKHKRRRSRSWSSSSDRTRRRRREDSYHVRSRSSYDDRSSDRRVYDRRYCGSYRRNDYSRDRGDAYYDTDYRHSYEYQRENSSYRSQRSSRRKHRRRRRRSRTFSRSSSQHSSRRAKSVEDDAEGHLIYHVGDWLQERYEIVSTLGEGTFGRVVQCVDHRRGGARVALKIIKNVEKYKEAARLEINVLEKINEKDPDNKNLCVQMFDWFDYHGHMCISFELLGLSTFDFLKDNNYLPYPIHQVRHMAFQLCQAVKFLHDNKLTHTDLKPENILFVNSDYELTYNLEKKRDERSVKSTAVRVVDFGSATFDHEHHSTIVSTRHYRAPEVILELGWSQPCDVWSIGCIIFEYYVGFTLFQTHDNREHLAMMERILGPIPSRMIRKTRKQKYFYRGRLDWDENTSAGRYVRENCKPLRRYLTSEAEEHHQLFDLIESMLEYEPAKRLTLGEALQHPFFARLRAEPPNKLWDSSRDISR

PAK3(h) = PAK3(h) (Homo sapiens, UniProt O75914); conditions: 100 μM
Sequence of PAK3(h) (O75914 whole entry): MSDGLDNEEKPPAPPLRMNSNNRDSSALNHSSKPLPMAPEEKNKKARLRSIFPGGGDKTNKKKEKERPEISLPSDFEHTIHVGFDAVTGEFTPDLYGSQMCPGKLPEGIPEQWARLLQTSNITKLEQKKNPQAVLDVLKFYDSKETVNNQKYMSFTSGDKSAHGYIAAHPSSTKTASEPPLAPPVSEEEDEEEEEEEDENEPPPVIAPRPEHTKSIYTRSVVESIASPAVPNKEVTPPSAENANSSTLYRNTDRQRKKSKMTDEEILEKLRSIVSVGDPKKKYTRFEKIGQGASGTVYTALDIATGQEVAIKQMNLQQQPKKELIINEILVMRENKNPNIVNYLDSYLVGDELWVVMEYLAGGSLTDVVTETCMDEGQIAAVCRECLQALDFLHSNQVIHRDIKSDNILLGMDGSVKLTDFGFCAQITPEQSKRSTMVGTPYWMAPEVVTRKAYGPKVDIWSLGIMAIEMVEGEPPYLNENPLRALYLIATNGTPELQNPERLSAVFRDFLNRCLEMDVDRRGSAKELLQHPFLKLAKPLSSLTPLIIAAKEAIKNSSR

Sequence of PKBγ(h) (Q9Y243 whole entry): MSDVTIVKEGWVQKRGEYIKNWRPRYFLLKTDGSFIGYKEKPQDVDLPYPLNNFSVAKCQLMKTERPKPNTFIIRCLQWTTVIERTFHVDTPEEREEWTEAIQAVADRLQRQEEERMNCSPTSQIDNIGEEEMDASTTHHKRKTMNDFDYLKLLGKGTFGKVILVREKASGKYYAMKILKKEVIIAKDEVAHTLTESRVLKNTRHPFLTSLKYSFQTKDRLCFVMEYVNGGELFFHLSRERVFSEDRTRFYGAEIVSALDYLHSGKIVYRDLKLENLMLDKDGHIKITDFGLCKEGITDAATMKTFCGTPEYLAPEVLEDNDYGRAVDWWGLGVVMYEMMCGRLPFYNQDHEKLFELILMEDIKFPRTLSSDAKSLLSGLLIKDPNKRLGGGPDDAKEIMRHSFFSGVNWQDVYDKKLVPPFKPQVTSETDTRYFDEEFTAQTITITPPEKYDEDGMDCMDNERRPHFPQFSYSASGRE
Sequence of MKK7β(h) (O14733 whole entry): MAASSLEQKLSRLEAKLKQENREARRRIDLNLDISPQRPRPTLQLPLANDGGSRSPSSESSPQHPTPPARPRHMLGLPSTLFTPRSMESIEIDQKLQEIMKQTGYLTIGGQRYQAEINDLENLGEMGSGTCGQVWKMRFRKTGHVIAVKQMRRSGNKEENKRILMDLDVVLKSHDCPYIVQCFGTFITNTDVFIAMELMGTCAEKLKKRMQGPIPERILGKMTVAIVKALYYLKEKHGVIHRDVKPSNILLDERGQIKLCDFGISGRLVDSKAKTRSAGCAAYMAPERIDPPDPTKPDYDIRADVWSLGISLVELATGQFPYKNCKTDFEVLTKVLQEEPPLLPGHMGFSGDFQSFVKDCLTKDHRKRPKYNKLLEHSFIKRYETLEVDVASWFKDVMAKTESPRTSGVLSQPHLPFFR

H-YARAAARQARAKALARQLGVAA-OH [MMI-0100]
activity at 100 µM (MKK7β(h)): 137%

HRRIKAWLKKIKALARQLGVAA (Mammalian) [MMI-0500]
% activity (PKBγ(h)): 20%
% activity (DDR2(h)): 79%

YARAAARQARAKALNRQLGVA (Mammalian) [MMI-0200]
% activity (CLK2(h)): 97%
% activity (PAK3(h)): 50%
